Measurements: article PMC3164632

Target: West Nile virus envelope (E) protein (West Nile virus)

**Q.** With “Aedes aegypti pupal cuticle (PC) protein (AAEL011045) (natural protein)” as the substance, how does the survival of mice injected i.p. with WNV pre-incubated with PC protein for an hour at 37°C (against WNV alone, all of which died within 14 days p.i.) read?
**A.** Its survival of mice injected i.p. with WNV pre-incubated with PC protein for an hour at 37°C (against WNV alone, all of which died within 14 days p.i.) is 60%.
